Earlier results on one substance are cited in article PMC11449013.

Read-outs that look alike come from different tables or passages of the source.

The target in the series is His128 (UniProt position 179, FICPCHGSQYN).

As for “Cytochrome b6f complex Rieske iron-sulfur protein (ISP, PetC) (Spinacia oleracea (residue numbering; the article does not state the species in which the quoted values were measured))”, the pKa entry by setting is: (2Fe2S cluster oxidised) “∼6.2”; (2Fe2S cluster reduced) “∼8”.
